The data set deals with T1, iron-sulfur cluster assembly (ISCU) protein, Q9H1K1.
T1 chain: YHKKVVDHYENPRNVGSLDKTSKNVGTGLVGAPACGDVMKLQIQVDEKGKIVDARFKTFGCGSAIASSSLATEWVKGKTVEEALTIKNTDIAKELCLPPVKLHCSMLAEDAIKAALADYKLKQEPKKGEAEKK

Results on one protein are retold here after patent US20230414590.

B1: glutathione S-transferase P (GSTP1) (protein)
chain: PPYTVVYFPVRGRCAALRMLLADQGQSWKEEVVTVETWQEGSLKASCLYGQLPKFQDGDLTLYQSNTILRHLGRTLGLYGKDQQEAALVDMVNDGVEDLRCKYISLIYTNYEAGKDDYVKALPGQLKPFETLLSQNQGGKTFIVGDQISFADYNLLDLLLIHEVLAPGCLDAFPLLSAYVGRLSARPKLKAFLASPEYVNLPINGNGKQ
On to B1, for which the “ISCU glutathionylation (α-GSH immunoblot after α-ISCU immunoprecipitation) in PAECs with GSTP1 knockdown” value was “with GSTP1 knockdown, α-ISCU immunoprecipitation revealed a concomitant reduction of GSTP1 pulldown and glutathionylated ISCU in favor of non-glutathionylated ISCU”.
